Measured values as given in patent publication US20220153819A1 (Regeneron, published 2022).
Like-named read-outs stand apart in the source and are kept apart here.

Tests used:
IsdB.6×(His) [1] = biological target: T1, IsdB.6×(His) (Staphylococcus aureus, UniProt A6QG30 41-613); test: SPR (Biacore 8k), 37C; IsdB-6xHis captured via anti-His, bsAb injected
biotinylated human C1q [2] = biological target: T2, biotinylated human C1q (human, UniProt P02745 23-245; P02746 28-253; P02747 29-245)
T2 construct: also called Bt hC1q; bt-hC1q

IsdB.6×(His) [3] = biological target: T1, IsdB.6×(His); test: SPR (Biacore T200), 37C; antibody captured, IsdB.6xHis injected
IsdB.6×(His) [4] = biological target: T1, IsdB.6×(His); test: SPR (Biacore), 37C; IsdB.6xHis captured, bsAb injected
[5] = biological target: T3, human complement component 1q (C1q) (human, UniProt P02745 23-245; P02746 28-253; P02747 29-245)
biotinylated human C1q [6] = biological target: T2, biotinylated human C1q; remark: listed apart in the source
[7] = biological target: T4, IsdB on the surface of S. aureus Newman Δspa (Staphylococcus aureus, UniProt A6QG30 41-613); test: ELISA, plate coated with S. aureus Newman Δspa, luminescence
T4 construct: whole, on cells; also called iron-regulated surface determinant protein B

[8] = biological target: T5, hemagglutinin (HA) on A/Puerto Rico/08/1934 (H1N1)-infected MDCK cells (Influenza A virus A/Puerto Rico/08/1934 …, UniProt P03452 18-565); test: cell ELISA on fixed A/Puerto Rico/08/1934 (H1N1)-infected MDCK cells
T5 construct: whole, on cells; also called Influenza HA

[9] = biological target: T3, human complement component 1q (C1q); test: SPR (Biacore T200), 37C; bsAb captured via anti-human F(ab')2, hC1q injected
[10] = biological target: T3, human complement component 1q (C1q); test: SPR (Biacore T200), 25C; bsAb captured via anti-human F(ab')2, hC1q injected
[11] = biological target: T5, hemagglutinin (HA) on A/Puerto …; test: cell-based or functional assay
IsdB.6×(His) [12] = biological target: T1, IsdB.6×(His); test: SPR (Biacore T200), 37C; bsAb captured, IsdB-6xHis injected
[13] = biological target: T3, human complement component 1q (C1q); test: cell-based or functional assay
IsdB.6×(His) [14] = biological target: T1, IsdB.6×(His); test: SPR (Biacore 8k), 25C; IsdB-6xHis captured via anti-His, bsAb injected
mouse C1q = mouse C1q (mouse, UniProt P98086 23-245; P14106 26-253; Q02105 30-246); test: not described
IsdB.6×(His) [15] = biological target: T1, IsdB.6×(His); test: SPR (Biacore T200), 25C; bsAb captured, IsdB-6xHis injected
biotinylated human C1q [16] = biological target: T2, biotinylated human C1q; test: SPR (Biacore), 37C; biotinylated hC1q captured at low density, bsAb injected
[17] = biological target: T3, human complement component 1q (C1q); remark: listed apart in the source

T2 sequence (P02745 23-245, chain 1 of 3): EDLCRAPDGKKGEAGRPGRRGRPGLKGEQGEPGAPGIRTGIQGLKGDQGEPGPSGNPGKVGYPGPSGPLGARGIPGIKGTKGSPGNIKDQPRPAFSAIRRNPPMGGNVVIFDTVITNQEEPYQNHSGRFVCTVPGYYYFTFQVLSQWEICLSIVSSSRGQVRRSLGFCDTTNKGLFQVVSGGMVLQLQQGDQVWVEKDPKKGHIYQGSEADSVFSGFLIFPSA
T2 sequence (P02746 28-253, chain 2 of 3): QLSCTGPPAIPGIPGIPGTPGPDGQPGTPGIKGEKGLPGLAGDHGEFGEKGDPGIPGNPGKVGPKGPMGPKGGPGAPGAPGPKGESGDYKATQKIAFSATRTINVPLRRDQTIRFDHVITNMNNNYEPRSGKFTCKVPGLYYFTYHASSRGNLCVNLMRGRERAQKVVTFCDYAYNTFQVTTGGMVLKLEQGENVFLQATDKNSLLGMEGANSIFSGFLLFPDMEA
T2 sequence (P02747 29-245, chain 3 of 3): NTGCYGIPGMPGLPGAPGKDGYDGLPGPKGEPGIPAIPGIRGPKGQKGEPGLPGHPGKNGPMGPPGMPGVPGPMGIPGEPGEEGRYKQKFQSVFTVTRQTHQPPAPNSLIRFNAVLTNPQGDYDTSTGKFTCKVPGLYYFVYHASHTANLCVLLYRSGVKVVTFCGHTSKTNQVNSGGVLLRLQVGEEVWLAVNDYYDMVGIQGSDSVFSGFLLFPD
T3 sequence (P02745 23-245, chain 1 of 3): as the sequence (P02745 23-245, chain 1 of 3) above
T3 sequence (P02746 28-253, chain 2 of 3): as the sequence (P02746 28-253, chain 2 of 3) above
T3 sequence (P02747 29-245, chain 3 of 3): as the sequence (P02747 29-245, chain 3 of 3) above
Chain of mouse C1q (P98086 23-245 limits assumed, chain 1 of 3): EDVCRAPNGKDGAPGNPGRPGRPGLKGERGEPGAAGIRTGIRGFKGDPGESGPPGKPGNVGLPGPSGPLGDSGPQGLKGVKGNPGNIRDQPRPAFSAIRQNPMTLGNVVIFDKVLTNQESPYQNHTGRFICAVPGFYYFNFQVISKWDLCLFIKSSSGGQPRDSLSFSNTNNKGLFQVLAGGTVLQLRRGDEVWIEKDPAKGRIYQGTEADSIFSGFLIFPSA
Chain of mouse C1q (P14106 26-253 limits assumed, chain 2 of 3): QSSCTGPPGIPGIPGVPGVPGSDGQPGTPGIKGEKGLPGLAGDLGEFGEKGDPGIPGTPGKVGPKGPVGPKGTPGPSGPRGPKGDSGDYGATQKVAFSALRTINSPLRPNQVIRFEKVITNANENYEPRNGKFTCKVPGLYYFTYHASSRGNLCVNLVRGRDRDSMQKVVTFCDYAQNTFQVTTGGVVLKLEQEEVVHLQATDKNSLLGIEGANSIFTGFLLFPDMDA
Chain of mouse C1q (Q02105 30-246 limits assumed, chain 3 of 3): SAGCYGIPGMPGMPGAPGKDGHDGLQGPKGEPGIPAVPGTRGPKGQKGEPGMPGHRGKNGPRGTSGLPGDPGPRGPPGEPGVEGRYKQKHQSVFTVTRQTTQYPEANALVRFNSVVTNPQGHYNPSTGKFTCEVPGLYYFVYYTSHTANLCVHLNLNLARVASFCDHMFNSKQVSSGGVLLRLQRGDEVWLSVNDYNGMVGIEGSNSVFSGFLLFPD

B1: REGN5066, anti-IsdB x anti-C1q bispecific antibody (bispecific antibody, V domains shown)
VH 1: EVQLVESGGGLVQPGRSLRLSCTTSGFTFDDYAMHWVRQVPGQGLEWVAGLSWNSDTIGYADSVKGRFTISRDNAKNSLYLQMKSLKAEDTALYYCTKDFYHSLNNWNYYYFDYWGQGTLVTVSS
VH 2: EVQLVESGGGVVQPGGSLRLSCAASGFSLDDYAMHWVRQTPGKGLEWVSLISGDGSRTSYADSVKGRFTISRDNSKNSLYLKMNSLRTEDTALYYCTKDPHNSNWFDPWGQGTLVTVSS
VL: not shown
notes: also called bsC1q × IsdB; bs hC1q × IsdB
Kd (IsdB.6×(His) [1]): 7.52 nM
koff (IsdB.6×(His) [1]): 0.00657 s⁻¹
kon (IsdB.6×(His) [1]): 874000 M⁻¹ s⁻¹
t½ (IsdB.6×(His) [1]): 1.8 min
Kd (biotinylated human C1q [2]): 402 nM
koff (biotinylated human C1q [2]): 0.0366 s⁻¹
kon (biotinylated human C1q [2]): 91100 M⁻¹ s⁻¹
t1/2 (biotinylated human C1q [2]): 0.32 min
Kd (IsdB.6×(His) [3]): 3.43 nM
T1/2 (IsdB.6×(His) [3]): 21 min
koff (IsdB.6×(His) [3]): 0.000557 s⁻¹
kon (IsdB.6×(His) [3]): 163000 M⁻¹ s⁻¹
Kd (IsdB.6×(His) [4]): 7.52 nM
T1/2 (IsdB.6×(His) [4]): 1.8 min
koff (IsdB.6×(His) [4]): 0.00657 s⁻¹
kon (IsdB.6×(His) [4]): 874000 M⁻¹ s⁻¹
Kd [5]: 3.23 nM
T1/2 [5]: 3.5 min
koff [5]: 0.00334 s⁻¹
kon [5]: 1.03e+06 M⁻¹ s⁻¹
Kd (biotinylated human C1q [6]): 666 nM
koff (biotinylated human C1q [6]): 0.0782 s⁻¹
kon (biotinylated human C1q [6]): 117000 M⁻¹ s⁻¹
t1/2 (biotinylated human C1q [6]): 0.15 min
EC50 [7]: 0.19 nM
Maximum binding (RLUs) [8]: 2500 RLU
koff [9]: 0.00502 s⁻¹
kon [9]: 3.22e+06 M⁻¹ s⁻¹
t1/2 [9]: 2.3 min
Kd [10]: 0.842 nM
koff [10]: 0.00211 s⁻¹
kon [10]: 2.51e+06 M⁻¹ s⁻¹
t1/2 [10]: 5.5 min
CDC EC50 (H1N1-infected MDCK cells) [11]: > 889 nM
Maximum percent specific lysis (CDC of H1N1-infected MDCK cells) [11]: -6.15%
Kd (IsdB.6×(His) [12]): 3.43 nM
koff (IsdB.6×(His) [12]): 0.000557 s⁻¹
kon (IsdB.6×(His) [12]): 163000 M⁻¹ s⁻¹
t1/2 (IsdB.6×(His) [12]): 20.7 min
C1q deposition on S. aureus (plate-based, anti-C1q detection), EC50 [13]: 0.127 nM
Kd (IsdB.6×(His) [14]): 2.3 nM
koff (IsdB.6×(His) [14]): 0.00105 s⁻¹
kon (IsdB.6×(His) [14]): 457000 M⁻¹ s⁻¹
t1/2 (IsdB.6×(His) [14]): 11 min
binding result (mouse C1q): no binding
Kd (IsdB.6×(His) [15]): 2.36 nM
koff (IsdB.6×(His) [15]): 0.00027 s⁻¹
kon (IsdB.6×(His) [15]): 115000 M⁻¹ s⁻¹
t1/2 (IsdB.6×(His) [15]): 42.8 min
Kd (biotinylated human C1q [16]): 3670 nM
T1/2 (biotinylated human C1q [16]): 0.12 min
koff (biotinylated human C1q [16]): 0.0964 s⁻¹
kon (biotinylated human C1q [16]): 26200 M⁻¹ s⁻¹
Kd [17]: 1.56 nM
T1/2 [17]: 2.3 min
koff [17]: 0.00502 s⁻¹
kon [17]: 3.22e+06 M⁻¹ s⁻¹
